Data reported in US20160215041A1.

Assays:
[1] = molecular target: Anti-P. aeruginosa O6ad Fab, c-myc- and 6× His-tagged (human); assay: ELISA: anti-O6ad Fab coated, two-fold dilutions of anti-tag IgG, goat anti-mouse IgG-HRP
[2] = molecular target: Anti-P. aeruginosa O6ad scFv, c-myc- and 6× His-tagged (human); assay: ELISA, rAb coated, anti-tag IgG titrated (FIG. 7)
[3] = molecular target: Anti-P. aeruginosa O6ad Fab, c-myc- and 6× His-tagged (human); assay: ELISA, rAb coated, anti-tag IgG titrated (FIG. 7)
[4] = molecular target: Anti-P. aeruginosa O6ad scFv, c-myc- and 6× His-tagged (human); assay: ELISA: anti-O6ad scFv coated, two-fold dilutions of anti-tag IgG, goat anti-mouse IgG-HRP
[5] = molecular target: Anti-P. aeruginosa O6ad scFv, c-myc- and 6× His-tagged (human); assay: cell-based or functional assay
[6] = molecular target: Anti-P. aeruginosa O6ad Fab, c-myc- and 6× His-tagged (human); assay: cell-based or functional assay
[7] = molecular target: Human complement C1q (human) (UniProt P02745); assay: C1q deposition ELISA, anti-tag IgG alone at 66.67 nM
Sequence of UniProt P02745 (P02745 23-245 limits assumed, chain 1 of 3): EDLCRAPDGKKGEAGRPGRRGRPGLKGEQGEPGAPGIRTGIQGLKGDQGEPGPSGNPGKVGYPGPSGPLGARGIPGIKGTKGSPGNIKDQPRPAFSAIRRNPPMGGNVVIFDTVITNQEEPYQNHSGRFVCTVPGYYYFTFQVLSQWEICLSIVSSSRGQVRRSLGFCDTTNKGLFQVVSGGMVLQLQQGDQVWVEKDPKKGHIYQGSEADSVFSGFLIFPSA
Sequence of UniProt P02745 (P02746 28-253 limits assumed, chain 2 of 3, further chain): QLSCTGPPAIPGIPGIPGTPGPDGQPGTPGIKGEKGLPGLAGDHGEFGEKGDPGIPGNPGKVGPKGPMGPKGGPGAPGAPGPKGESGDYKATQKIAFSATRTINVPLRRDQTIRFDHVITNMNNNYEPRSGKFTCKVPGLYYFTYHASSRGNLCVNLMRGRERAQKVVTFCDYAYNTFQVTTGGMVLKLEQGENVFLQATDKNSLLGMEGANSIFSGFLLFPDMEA
Sequence of UniProt P02745 (P02747 29-245 limits assumed, chain 3 of 3, further chain): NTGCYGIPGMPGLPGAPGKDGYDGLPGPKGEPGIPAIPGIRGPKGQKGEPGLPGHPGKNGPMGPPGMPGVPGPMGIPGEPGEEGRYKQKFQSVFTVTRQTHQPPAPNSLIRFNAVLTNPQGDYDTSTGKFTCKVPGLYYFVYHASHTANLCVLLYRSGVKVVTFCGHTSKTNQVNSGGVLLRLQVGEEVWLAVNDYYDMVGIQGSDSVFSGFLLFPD

| EC50 (read off the curve) [1] [nM] | fold binding relative to 9E10 [2] [fold] | fold binding relative to 9E10 [3] [fold] | EC50 (read off the curve) [4] [nM] | % phagocytosed bacteria (P. aeruginosa O6ad, J774.1A) [5] [%] | fold increase of bacterial uptake over the control without antibodies, at 13.09 nM anti-tag IgG [5] [fold] | fold phagocytosis relative to scFv-9E10 [5] [fold] | % phagocytosed bacteria (P. aeruginosa O6ad, J774.1A) [6] [%] | fold increase of bacterial uptake over the control without antibodies, at 13.09 nM anti-tag IgG [6] [fold] | fold phagocytosis relative to Fab-9E10 [6] [fold] | fold C1q deposition relative to Penta-His [7] [fold] | Substance |
| --- | --- | --- | --- | --- | --- | --- | --- | --- | --- | --- | --- |
| 1 | < 10 | < 10 | 1 | 42 | 10.6 | 2 | 27 | 3.5 | > 1.2 |  | Anti-Penta-His IgG1 murine mAb (QIAgen) (antibody) |
|  |  |  |  | 24.8 | 4.6 |  | 18.8 | 3.5 |  | 1.4 | Murine mAb 9E10 (anti-c-myc IgG1) from hybridoma 1-9E10.2 (ATCC CRL-1729) (antibody) |
